Results as given in patent US20020001857A1.

Key:
PHF-tau (human) [1] = biological target: PHF-tau (human) (UniProt P10636); assay: competition ELISA on captured PHF-tau; biotinylated AT8, unlabeled competitor AT120 at 10 ug/ml
PHF-tau (human) [2] = biological target: PHF-tau (human) (UniProt P10636); assay: competition ELISA on captured PHF-tau; biotinylated AT8, unlabeled competitor AT8 at 10 ug/ml
PHF-tau (human) [3] = biological target: PHF-tau (human) (UniProt P10636); assay: sandwich ELISA, AT120 coated, no tau added (background), detection with biotinylated BT2 and HT7
[4] = biological target: affinity-purified human normal tau (human) (UniProt P10636); assay: as above
PHF-tau (human) [5] = biological target: PHF-tau (human) (UniProt P10636); assay: competition ELISA on captured PHF-tau; biotinylated AT120, unlabeled competitor AT120 at 10 ug/ml
PHF-tau (human) [6] = biological target: PHF-tau (human) (UniProt P10636); assay: competition ELISA on captured PHF-tau; biotinylated AT120, unlabeled competitor AT8 at 10 ug/ml
PHF-tau (human) [7] = biological target: PHF-tau (human) (UniProt P10636); assay: sandwich ELISA, AT120 coated, tau spiked in tau-negative CSF, detection with biotinylated BT2 and HT7
[8] = biological target: affinity-purified human normal tau (human) (UniProt P10636); assay: as above
PHF-tau (human) [9] = biological target: PHF-tau (human) (UniProt P10636); assay: competition ELISA on captured PHF-tau; biotinylated BT2, unlabeled competitor BT2 at 10 ug/ml
PHF-tau (human) [10] = biological target: PHF-tau (human) (UniProt P10636); assay: competition ELISA on captured PHF-tau; biotinylated BT2, unlabeled competitor AT120 at 10 ug/ml

monoclonal antibody AT8 showed an absorbance (PHF-tau (human) [1]) of 0.372 absorbance and an absorbance (PHF-tau (human) [2]) of 0.001 absorbance.

monoclonal antibody AT120 showed an absorbance at 0 pg/ml (blank) (milliabsorbance units) (PHF-tau (human) [3]) of 92, an absorbance at 0 pg/ml (blank) (milliabsorbance units) [4] of 87 and an absorbance (PHF-tau (human) [5]) of 0.001 absorbance. The absorbance (PHF-tau (human) [6]) was 0.476 absorbance, the absorbance at 10 pg/ml (milliabsorbance units) (PHF-tau (human) [7]) was 143 and the absorbance at 20 pg/ml (milliabsorbance units) (PHF-tau (human) [7]) was 257. For the same substance, the absorbance at 40 pg/ml (milliabsorbance units) (PHF-tau (human) [7]) was 566, the absorbance at 80 pg/ml (milliabsorbance units) (PHF-tau (human) [7]) was 901 and the absorbance at 160 pg/ml (milliabsorbance units) (PHF-tau (human) [7]) was 1680. For the same substance, the absorbance at 10 pg/ml (milliabsorbance units) [8] was 154, the absorbance at 20 pg/ml (milliabsorbance units) [8] was 256 and the absorbance at 40 pg/ml (milliabsorbance units) [8] was 678. The absorbance at 80 pg/ml (milliabsorbance units) [8] was 970 and the absorbance at 160 pg/ml (milliabsorbance units) [8] was 1610.

With monoclonal antibody BT2 the absorbance (PHF-tau (human) [9]) was 0.054 absorbance and the absorbance (PHF-tau (human) [10]) was 0.543 absorbance.
